One assay deals with micro(μ)-plasmin (human, UniProt P00747 561-580; P00747 581-810). Nature of the assay: SEC.
A further assay addresses Glu-plasminogen. Nature of the assay: SPR.
Assay [1] deals with tissue plasminogen activator (tPA, Alteplase). In words: SPR.

Glu-plasminogen, sequence (P00747 20-810): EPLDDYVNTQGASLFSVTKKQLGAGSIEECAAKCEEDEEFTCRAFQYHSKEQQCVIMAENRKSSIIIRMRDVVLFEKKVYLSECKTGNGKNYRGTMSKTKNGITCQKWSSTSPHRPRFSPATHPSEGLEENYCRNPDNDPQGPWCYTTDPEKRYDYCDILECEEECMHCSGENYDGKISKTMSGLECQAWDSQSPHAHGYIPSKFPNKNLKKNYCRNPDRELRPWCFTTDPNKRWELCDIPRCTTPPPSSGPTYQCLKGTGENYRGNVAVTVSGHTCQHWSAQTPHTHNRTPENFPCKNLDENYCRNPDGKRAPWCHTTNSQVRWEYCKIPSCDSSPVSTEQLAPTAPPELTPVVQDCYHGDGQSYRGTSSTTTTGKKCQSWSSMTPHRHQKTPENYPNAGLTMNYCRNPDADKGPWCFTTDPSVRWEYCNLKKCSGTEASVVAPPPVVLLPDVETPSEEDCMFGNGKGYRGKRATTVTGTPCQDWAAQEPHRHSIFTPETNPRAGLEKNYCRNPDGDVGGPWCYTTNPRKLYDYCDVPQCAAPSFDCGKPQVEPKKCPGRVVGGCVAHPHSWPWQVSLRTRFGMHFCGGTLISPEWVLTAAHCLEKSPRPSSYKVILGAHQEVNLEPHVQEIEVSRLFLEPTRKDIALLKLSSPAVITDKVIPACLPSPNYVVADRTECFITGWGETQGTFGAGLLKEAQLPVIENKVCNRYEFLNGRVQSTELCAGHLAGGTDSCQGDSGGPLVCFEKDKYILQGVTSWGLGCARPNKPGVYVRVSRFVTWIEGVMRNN
micro(μ)-plasmin, sequence (P00747 561-580, chain 1 of 2): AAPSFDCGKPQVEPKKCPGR
micro(μ)-plasmin, sequence (P00747 581-810, chain 2 of 2): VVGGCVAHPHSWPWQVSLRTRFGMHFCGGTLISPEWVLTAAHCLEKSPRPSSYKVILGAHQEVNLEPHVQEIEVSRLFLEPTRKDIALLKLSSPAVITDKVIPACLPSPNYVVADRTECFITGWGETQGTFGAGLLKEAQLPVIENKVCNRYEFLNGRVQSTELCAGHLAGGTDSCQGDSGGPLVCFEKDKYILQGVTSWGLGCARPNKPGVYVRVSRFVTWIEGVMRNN

B1: KD1_(L17R)-KT (Kunitz domain 1 of tissue factor pathway inhibitor-2, Leu17Arg, with C-terminal lysine) (domain or fragment, human, UniProt P48307 30-94, looked up)
chain: GNNAEICLLPLDYGPCRARLLRYYYDRYTQSCRQFLYGGCEGNANNFYTWEACDDACWRIEKVPK
Turning to B1, the binding result in the assay with micro(μ)-plasmin was “binds”. In the assay with Glu-plasminogen, this molecule came in with a Kd of 280 nM, an RU at 1 μM analyte of 86 RU, a koff of 0.00031 s⁻¹ and a kon of 1100 M⁻¹ s⁻¹. In assay [1], this molecule gave a Kd of 210 nM, an RU at 1 μM analyte of 155 RU, a koff of 0.00019 s⁻¹ and a kon of 910 M⁻¹ s⁻¹.

B2: KD1_(L17R)-VT (Kunitz domain 1 of tissue factor pathway inhibitor-2, Leu17Arg, with C-terminal valine) (domain or fragment, human)
chain: GSHMDAAQEPTGNNAEICLLPLDYGPCRARLLRYYYDRYTQSCRQFLYGGCEGNANNFYTWEACDDACWRIEKVPKV
Regarding B2, in the assay with micro(μ)-plasmin, the binding result is reported as “binds”. The RU at 1 μM analyte with Glu-plasminogen amounted to 12 RU.

The values are drawn from PMC3985851 (Biochemistry, 2014).
